Source: patent publication US20100291088A1 (published 2010)

Biological target: (4C/A)-huIL-18 (human, UniProt Q14116 37-193)
Assay: cell-based or functional assay

B1: IL-18BP-Fc (Fc fusion, UniProt O95998 31-194, looked up, not shown: a dimerising Fc or GST)
chain: TPVSQTTTAATASVRSTKDPCPSQPPVFPAAKQCPALEVTWPEVEVPLNGTLSLSCVACSRFPNFSILYWLGNGSFIEHLPGRLWEGSTSRERGSTGTQLCKALVLEQLTPALHSTNFSCVLVDPEQVVQRHVVLAQLWAGLRATLPPTQEALPSSHSSPQQQG
KG-1 neutralization potency in vitro (IC50, nM): 0.03 nM
